The assay addresses pathological Aβ deposits in a human brain with Alzheimer's disease (human, UniProt P05067 672-713). Briefly: not described (human Alzheimer brain tissue).

pathological Aβ deposits in a human brain with Alzheimer's disease, sequence (P05067 672-713): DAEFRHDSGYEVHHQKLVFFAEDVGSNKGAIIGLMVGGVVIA

B1: antibody NI-203.26C11 (constant region as tested not stated) (antibody, V domains shown)
VH: QVQLQESGPGLVKPSQTLSLTCTVSGGSISSGNYYWTWIRQPAGKGLEWIGHIYSSGTTNYNPSLESRVTISVDTSKNQFSLSLNSVTAADTAVYYCARPLATVPDAFNIWGQGTMVTVSS
VL: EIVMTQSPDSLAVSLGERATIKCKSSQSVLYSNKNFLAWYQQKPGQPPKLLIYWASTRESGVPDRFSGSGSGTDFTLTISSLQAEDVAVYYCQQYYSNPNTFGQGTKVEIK
notes: also called anti-hIAPP antibody
Regarding B1, the binding result was “no binding”.

Source of the values: patent US20180179276A1 (NEURIMMUNE, published 2018).
